The results in this text go back to the supplement of paper PMC11316812.

± gives the standard deviation of the averaged measurements.

Series [1] has as its system MCF7. Put plainly: percentage of EdU-negative (G0-arrested) nuclei per well, 72 h; higher = more G0 arrest. Particulars: reference: sequence is the full UniProt precursor, the tested protein was the secreted form or ectodomain.
The subject of series [2] is hTERT-HMEC. Described as above. Particulars: reference: sequence is the full UniProt precursor, the tested protein was the secreted form or ectodomain.
Setting [3] is: protein concentration 0.0225 µM.
Where [4] appears, read: protein concentration 0.03125 µM.
Where [5] appears, read: protein concentration 0.3125 µM.
Where [6] appears, read: protein concentration 0.01075 µM.
The mark [7] stands for this setting: protein concentration 0.1075 µM.
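Also: secreted proteins added to cultured cells, EdU pulse at the end, nuclei found by Hoechst imaging, EdU status from nuclear versus surrounding ring intensity ratio, PBS as neutral control.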

With “MKLAALLGLCVALSCSSAAAFLVGSAKPVAQPVAALESAAEAGAGTLANPLGTLNPLKLLLSSLGIPVNHLIEGSQKCVAELGPQAVGAVKALKALLGALTVFG [Q96QR1]”, the “percentage of EdU-negative” value amounted to 21.8 ± 1.8% in series [1] (setting [3]), 23.7 ± 1.3% in series [1] (protein concentration 0.225 µM), 5.9 ± 0.79% in series [2] (setting [3]) and 5.2 ± 0.81% in series [2] (protein concentration 0.225 µM).

“MKPLLVVFVFLFLWDPVLAGINSLSSEMHKKCYKNGICRLECYESEMLVAYCMFQLECCVKGNPAP [Q4QY38]”: the “percentage of EdU-negative” value in series [1] (setting [3]) came to 26.33 ± 0.082%; in series [1] (protein concentration 0.225 µM), 27 ± 0.67%; in series [2] (setting [3]) it was 4.56 ± 0.45%; in series [2] (protein concentration 0.225 µM), 5.39 ± 1.7%.

Regarding “MALLPVLFLVTVLLPSLPAEGKDPAFTALLTTQLQVQREIVNKHNELRKAVSPPASNMLKMEWSREVTTNAQRWANKCTLQHSDPEDRKTSTRCGENLYMSSDPTSWSSAIQSWYDEILDFVYGVGPKSPNAVVGHYTQLVWYSTYQVGCGIAYCPNQDSLKYYYVCQYCPAGNNMNRKNTPYQQGTPCAGCPDDCDKGLCTNSCQYQDLLSNCDSLKNTAGCEHELLKEKCKATCLCENKIY”, the “percentage of EdU-negative” value came to 26.4 ± 1.6% in series [1] (setting [4]), 25 ± 1.1% in series [1] (setting [5]), 5.26 ± 0.72% in series [2] (setting [4]) and 6.12 ± 1.6% in series [2] (setting [5]).

For “MVAPGLVLGLVLPLILWADRSAGIGFRFASYINNDMVLQKEPAGAVIWGFGTPGATVTVTLRQGQETIMKKVTSVKAHSDTWMVVLDPMKPGGPFEVMAQQTLEKINFTLRVHDVLFGDVWLCSGQSNMQMTVLQIFNATRELSNTAAYQSVRILSVSPIQAEQELEDLVAVDLQWSKPTSENLGHGYFKYMSAVCWLFGRHLYDTLQYPIGLIASSWGGTPIEAWSSGRSLKACGVPKQGSIPYDSVTGPSKHSVLWNAMIHPLCNMTLKGVVWYQGESNINYNTDLYNCTFPALIEDWRETFHRGSQGQTERFFPFGLVQLSSDLSKKSSDDGFPQIRWHQTADFGYVPNPKMPNTFMAVAMDLCDRDSPFGSIHPRDKQTVAYRLHLGARALAYGEKNLTFEGPLPEKIELLAHKGLLNLTYYQQIQVQKKDNKIFEISCCSDHRCKWLPASMNTVSTQSLTLAIDSCHGTVVALRYAWTTWPCEYKQCPLYHPSSALPAPPFIAFITDQGPGHQSNVAK [Q9HAT2]”, the “percentage of EdU-negative” value is 24.9 ± 0.68% in series [1] (setting [3]), 24.8 ± 0.63% in series [1] (protein concentration 0.225 µM), 5.13 ± 1% in series [2] (setting [3]) and 7.82 ± 1.7% in series [2] (protein concentration 0.225 µM).

For the sequence “MPRAPAPLYACLLGLCALLPRLAGLNICTSGSATSCEECLLIHPKCAWCSKEDFGSPRSITSRCDLRANLVKNGCGGEIESPASSFHVLRSLPLSSKGSGSAGWDVIQMTPQEIAVNLRPGDKTTFQLQVRQVEDYPVDLYYLMDLSLSMKDDLDNIRSLGTKLAEEMRKLTSNFRLGFGSFVDKDISPFSYTAPRYQTNPCIGYKLFPNCVPSFGFRHLLPLTDRVDSFNEEVRKQRVSRNRDAPEGGFDAVLQAAVCKEKIGWRKDALHLLVFTTDDVPHIALDGKLGGLVQPHDGQCHLNEANEYTASNQMDYPSLALLGEKLAENNINLIFAVTKNHYMLYKNFTALIPGTTVEILDGDSKNIIQLIINAYNSIRSKVELSVWDQPEDLNLFFTATCQDGVSYPGQRKCEGLKIGDTASFEVSLEARSCPSRHTEHVFALRPVGFRDSLEVGVTYNCTCGCSVGLEPNSARCNGSGTYVCGLCECSPGYLGTRCECQDGENQSVYQNLCREAEGKPLCSGRGDCSCNQCSCFESEFGKIYGPFCECDNFSCARNKGVLCSGHGECHCGECKCHAGYIGDNCNCSTDISTCRGRDGQICSERGHCLCGQCQCTEPGAFGEMCEKCPTCPDACSTKRDCVECLLLHSGKPDNQTCHSLCRDEVITWVDTIVKDDQEAVLCFYKTAKDCVMMFTYVELPSGKSNLTVLREPECGNTPNAMTILLAVVGSILLVGLALLAIWKLLVTIHDRREFAKFQSERSRARYEMASNPLYRKPISTHTVDFTFNKFNKSYNGTVD”, the “percentage of EdU-negative” value was found to be 25.2 ± 1.3% in series [1] (setting [3]), 26 ± 1.5% in series [1] (protein concentration 0.225 µM), 5.13 ± 0.59% in series [2] (setting [3]) and 7.6 ± 1.1% in series [2] (protein concentration 0.225 µM).

In the case of “MGKGDPKKPRGKMSSYAFFVQTCREEHKKKHPDASVNFSEFSKKCSERWKTMSAKEKGKFEDMAKADKARYEREMKTYIPPKGETKKKFKDPNAPKRPPSAFFLFCSEYRPKIKGEHPGLSIGDVAKKLGEMWNNTAADDKQPYEKKAAKLKEKYEKDIAAYRAKGKPDAAKKGVVKAEKSKKKKEEEEDEEDEEDEEEEEDEEDEDEEEDDDDE”, the “percentage of EdU-negative” value in series [1] (setting [3]) came out at 23.1 ± 4.2%; in series [1] (protein concentration 0.225 µM), 24.5 ± 0.87%; in series [2] (setting [3]) it was 5.16 ± 0.5%; in series [2] (protein concentration 0.225 µM), 5.64 ± 0.066%.

On to “MEKMLAGCFLLILGQIVLLPAEARERSRGRSISRGRHARTHPQTALLESSCENKRADLVFIIDSSRSVNTHDYAKVKEFIVDILQFLDIGPDVTRVGLLQYGSTVKNEFSLKTFKRKSEVERAVKRMRHLSTGTMTGLAIQYALNIAFSEAEGARPLRENVPRVIMIVTDGRPQDSVAEVAAKARDTGILIFAIGVGQVDFNTLKSIGSEPHEDHVFLVANFSQIETLTSVFQKKLCTAHMCSTLEHNCAHFCINIPGSYVCRCKQGYILNSDQTTCRIQDLCAMEDHNCEQLCVNVPGSFVCQCYSGYALAEDGKRCVAVDYCASENHGCEHECVNADGSYLCQCHEGFALNPDKKTCTKIDYCASSNHGCQHECVNTDDSYSCHCLKGFTLNPDKKTCRRINYCALNKPGCEHECVNMEESYYCRCHRGYTLDPNGKTCSRVDHCAQQDHGCEQLCLNTEDSFVCQCSEGFLINEDLKTCSRVDYCLLSDHGCEYSCVNMDRSFACQCPEGHVLRSDGKTCAKLDSCALGDHGCEHSCVSSEDSFVCQCFEGYILREDGKTCRRKDVCQAIDHGCEHICVNSDDSYTCECLEGFRLAEDGKRCRRKDVCKSTHHGCEHICVNNGNSYICKCSEGFVLAEDGRRCKKCTEGPIDLVFVIDGSKSLGEENFEVVKQFVTGIIDSLTISPKAARVGLLQYSTQVHTEFTLRNFNSAKDMKKAVAHMKYMGKGSMTGLALKHMFERSFTQGEGARPLSTRVPRAAIVFTDGRAQDDVSEWASKAKANGITMYAVGVGKAIEEELQEIASEPTNKHLFYAEDFSTMDEISEKLKKGICEALEDSDGRQDSPAGELPKTVQQPTESEPVTINIQDLLSCSNFAVQHRYLFEEDNLLRSTQKLSHSTKPSGSPLEEKHDQCKCENLIMFQNLANEEVRKLTQRLEEMTQRMEALENRLRYR”, for which the “percentage of EdU-negative” value was determined as 29.2 ± 1.9% in series [1] (setting [6]), 24.3 ± 0.75% in series [1] (setting [7]), 5.94 ± 0.34% in series [2] (setting [6]) and 6.49 ± 0.6% in series [2] (setting [7]).
